From patent US20090155271A1 (ZymoGenetics, published 2009)
Several values for one entry are separate records, joined by “and”; a condition that tells them apart may be missing. Equal entries are not always repeated.

B1: mouse IL-17A (ligand)
chain: AAIIPQSSACPNTEAKDFLQNVKVNLKVFNSLGAKVSSRRPSDYLNRSTSPWTLHRNEDPDRYPSVIWEAQCRHQRCVNAEGKLDHHMNSVLIQQEILVLKREPESCPFTFRVEKMLVGVGCTCVASIVRQAA
B2: human IL-17F (ligand)
chain: RKIPKVGHTFFQKPESCPPVPGGSMKLDIGIINENQRVSMSRNIESRSTSPWNYTVTWDPNRYPSEVVQAQCRNLGCINAQGKEDISMNSVPIQQETLVVRRKHQGCSVSFQLEKVLVTVGCTCVTPVIHHVQ
notes: also called hIL-17F; huIL-17F
B3: Variant 1454 (exons 1-6 of human IL-17RA and 8-16 of human IL-17RCx1, fused to Fc5) (Fc fusion)
chain: SLRLLDHRALVCSQPGLNCTVKNSTCLDDSWIHPRNLTPSSPKDLQIQLHFAHTQQGDLFPVAHIEWTLQTDASILYLEGAELSVLQLNTNERLCVRFEFLSKLRHHHRRWRFTFSHFVVDPDQEYEVTVHHLPKPIPDGDPNHQSKNFLVPDCEHARMKVTTPCMSSALPWLNVSADGDNVHLVLNVSEEQHFGLSLYWNQVQGPPKPRWHKNLTGPQIITLNHTDLVPCLCIQVWPLEPDSVRTNICPFREDPRAHQNLWQAARLRLLTLQSWLLDAPCSLPAEAALCWRAPGGDPCQPLVPPLSWENVTVDKVLEFPLLKGHPNLCVQVNSSEKLQLQECLWADSLGPLKDDVLLLETRGPQDNRSLCALEPSGCTSLPSKASTRAARLGEYLLQDLQSGQCLQLWDDDLGALWACPMDKYIHKEPKSSDKTHTCPPCPAPEAEGAPSVFLFPPKPKDTLMISRTPEVTCVVVDVSHEDPEVKFNWYVDGVEVHNAKTKPREEQYNSTYRVVSVLTVLHQDWLNGKEYKCKVSNKALPSSIEKTISKAKGQPREPQVYTLPPSRDELTKNQVSLTCLVKGFYPSDIAVEWESNGQPENNYKTTPPVLDSDGSFFLYSKLTVDKSRWQQGNVFSCSVMHEALHNHYTQKSLSLSPGK
notes: also called IL17RA/RC 1454; soluble IL-17RC/IL-17RA polypeptide

Legend:
[1] = molecular target: T1, human IL-17RC, x1 splice variant, on transfected cells (human, UniProt Q8NAC3 21-791); assay: cell-based or functional assay
T1 sequence: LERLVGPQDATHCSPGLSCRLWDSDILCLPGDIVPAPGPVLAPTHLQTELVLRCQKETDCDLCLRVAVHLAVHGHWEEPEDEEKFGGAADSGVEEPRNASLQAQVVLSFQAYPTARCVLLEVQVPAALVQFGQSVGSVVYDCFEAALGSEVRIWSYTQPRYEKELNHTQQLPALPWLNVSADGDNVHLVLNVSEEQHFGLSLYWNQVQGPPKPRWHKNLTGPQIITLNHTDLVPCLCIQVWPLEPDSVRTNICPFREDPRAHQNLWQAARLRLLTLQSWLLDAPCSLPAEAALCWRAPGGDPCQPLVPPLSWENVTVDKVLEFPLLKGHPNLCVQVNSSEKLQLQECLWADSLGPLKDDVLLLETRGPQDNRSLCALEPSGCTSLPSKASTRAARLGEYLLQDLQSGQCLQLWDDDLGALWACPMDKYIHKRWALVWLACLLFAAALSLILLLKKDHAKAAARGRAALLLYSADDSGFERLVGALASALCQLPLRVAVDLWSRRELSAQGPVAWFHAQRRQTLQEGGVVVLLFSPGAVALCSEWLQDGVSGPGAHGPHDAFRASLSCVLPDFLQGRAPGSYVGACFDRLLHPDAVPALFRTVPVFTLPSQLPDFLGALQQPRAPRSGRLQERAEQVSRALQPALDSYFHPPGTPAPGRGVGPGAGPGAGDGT

[2] = molecular target: T1, human IL-17RC, x1 splice variant, on …; assay: 100x molar cold competitor, 125I IL-17F on BHK hIL-17RC cells
Protocol: (§1) Cold competitors were added in 100 fold molar excess. […] Wells were incubated on ice for 1-hour followed by two washes with PBS (Invitrogen 20012-027) and one wash with a high salt solution (1.5M NaCL, 50 mM HEPES pH 7.4). Wells were extracted with 500 ul of 0.8M NaOH for 30 min. at room temperature and counts per minute were measured in a gamma counter (Packard Cobra II A5005).

[3] = molecular target: T1, human IL-17RC, x1 splice variant, on …; assay: 100x molar cold competitor, 125I IL-17A on BHK hIL-17RC cells
Protocol: as §1

[4] = molecular target: T2, human IL-17RA on transfected cells (human, UniProt Q96F46 33-320); assay: cell-based or functional assay
T2 sequence: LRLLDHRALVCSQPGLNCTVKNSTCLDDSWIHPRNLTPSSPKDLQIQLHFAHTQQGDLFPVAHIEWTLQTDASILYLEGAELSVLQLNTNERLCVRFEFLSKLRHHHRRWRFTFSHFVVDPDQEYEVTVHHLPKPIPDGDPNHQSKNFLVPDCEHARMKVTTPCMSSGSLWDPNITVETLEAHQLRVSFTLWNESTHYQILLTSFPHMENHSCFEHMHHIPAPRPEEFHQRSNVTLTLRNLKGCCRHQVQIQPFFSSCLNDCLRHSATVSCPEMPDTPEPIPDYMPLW

human IL-17A [5] = molecular target: T3, human IL-17A (human, UniProt Q16552 24-155); assay: cell-based or functional assay
T3 sequence: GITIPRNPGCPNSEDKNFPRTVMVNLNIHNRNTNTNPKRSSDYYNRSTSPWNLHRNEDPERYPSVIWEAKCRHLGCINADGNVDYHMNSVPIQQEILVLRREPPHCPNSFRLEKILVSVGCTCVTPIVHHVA

human IL-17F [6] = molecular target: B2; assay: cell-based or functional assay
human IL-17A [7] = molecular target: T3, human IL-17A; assay: Biacore, receptor captured by anti-human IgG-Fc on CM5, ligand series
Text: (§2) The protocol was optimized to capture receptor at a theoretical binding max. before injecting a concentration series of each ligand to observe association and dissociation. […] The surface was regenerated with 2×30 sec. injections of pH 1.75 glycine between cycles.

human IL-17F [8] = molecular target: B2; assay: as above
Text: as §2

human IL-17A [9] = molecular target: T3, human IL-17A; assay: Biacore, rounded summary of Table 10
Text: as §2

human IL-17F [10] = molecular target: B2; assay: Biacore, rounded summary of Table 10
Text: as §2

human IL-17A [11] = molecular target: T3, human IL-17A; assay: cell-based or functional assay; remark: listed apart in the source
human IL-17F [12] = molecular target: B2; assay: cell-based or functional assay; remark: listed apart in the source

## B1
[1]
  EC50, ap1/nfkb luciferase in nih3t3/kz142.8/hcytor14x1 cells: ~0.004 µg/mL

## B2
[2]
  fold reduction of 125I IL-17F binding: ~5 fold
[3]
  fold reduction of 125I IL-17A binding: ~7 fold
[4]
  EC50, ap1/nfkb luciferase in nih3t3/kz142.8/IL-17R cells: 0.0124 µg/mL
[1]
  EC50, ap1/nfkb luciferase in nih3t3/kz142.8/hcytor14X1 cells: 0.00061 µg/mL

## B3
Human IL-17A [5]
  IC50, huIL-17A(10 ng/ml) induction of G-CSF in SAEC: 0.14 µg/mL
  IC50, huIL-17A(10 ng/ml) induction of IL-8 in SAEC: 0.03 µg/mL
Human IL-17F [6]
  IC50, huIL-17F(50 ng/ml) induction of G-CSF in SAEC: 1.2 µg/mL
  IC50, huIL-17F(50 ng/ml) induction of IL-8 in SAEC: 0.57 µg/mL
Human IL-17A [7]
  Kd: 0.0439 nM and 0.0382 nM
  koff: 6.22e-05 s⁻¹ and 9.95e-05 s⁻¹
  kon: 1.42e+06 M⁻¹ s⁻¹ and 2.61e+06 M⁻¹ s⁻¹
Human IL-17F [8]
  Kd: 0.143 nM and 0.126 nM
  koff: 0.000261 s⁻¹ and 0.000315 s⁻¹
  kon: 1.82e+06 M⁻¹ s⁻¹ and 2.49e+06 M⁻¹ s⁻¹
Human IL-17A [9]
  Kd: ~0.04 nM
Human IL-17F [10]
  Kd: ~0.14 nM
Human IL-17A [11]
  IC50, luciferase activation of hIL-17RA/NIH3T3/KZ142.8 cells by 0.5 ng/ml IL-17A: 0.007 µg/mL
Human IL-17F [12]
  IC50, luciferase activation of hIL-17RA/NIH3T3/KZ142.8 cells by 20 ng/ml IL-17F: 0.48 µg/mL
  IC50, luciferase activation of hIL-17RCX4/NIH3T3/KZ142.8 cells by 1 ng/ml IL-17F: 0.8 µg/mL
